# Experimental data as given in paper PMC9482650, “Quantitative fragmentomics allow affinity mapping of interactomes” (Nature Communications, 2022).
# Assays:
# Assay in all cases: holdup assay
# Set-up in all cases: key: below the threshold = too weak to quantify, mostly under pKd 3.1 to 4
# Conditions in all cases: plain residues with an end cap or a label only (N-terminal biotin on a linker: ado-ado)
# [1] = target: Inadl_5, Q8NI35
# [2] = target: TJP1_2, Q07157
# [3] = target: CASK, O14936
# [4] = target: T1, PDZD2_2, O15018
# T1 sequence (O15018 329-429, limits assumed, looked up): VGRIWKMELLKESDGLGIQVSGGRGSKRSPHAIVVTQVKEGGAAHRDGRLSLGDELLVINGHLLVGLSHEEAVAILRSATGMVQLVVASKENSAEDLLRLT
# [5] = target: T2, MPDZ_5, O75970
# T2 sequence (O75970 695-796, limits assumed, looked up): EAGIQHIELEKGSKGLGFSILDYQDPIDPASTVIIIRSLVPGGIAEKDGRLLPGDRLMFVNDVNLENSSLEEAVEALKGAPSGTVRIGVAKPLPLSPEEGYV
# [6] = target: FRMPD2_1, Q68DX3
# [7] = target: GRID2IP_1, A4D2P6
# [8] = target: MAGI1_1, Q96QZ7
# [9] = target: GORASP2, Q9H8Y8
# [10] = target: DLG4_1, P78352
# [11] = target: T3, GRIP1_7, Q9Y3R0
# T3 sequence (Q9Y3R0 999-1096, limits assumed, looked up): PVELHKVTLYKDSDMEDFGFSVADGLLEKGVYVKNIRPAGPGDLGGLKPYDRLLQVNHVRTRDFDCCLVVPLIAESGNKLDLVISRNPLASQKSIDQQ
# [12] = target: FRMPD2_3, Q68DX3
# [13] = target: T4, SNTB1, Q13884
# T4 sequence (Q13884 107-205, limits assumed, looked up): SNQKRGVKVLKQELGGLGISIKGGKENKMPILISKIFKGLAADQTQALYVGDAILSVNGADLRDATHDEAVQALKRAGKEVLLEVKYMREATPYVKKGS
# [14] = target: MAGI2_6, Q86UL8
# [15] = target: T5, HTRA3, P83110
# T5 sequence (P83110 354-453, limits assumed, looked up): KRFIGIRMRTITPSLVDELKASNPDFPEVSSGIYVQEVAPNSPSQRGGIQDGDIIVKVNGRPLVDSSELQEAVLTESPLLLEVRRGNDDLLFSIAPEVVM
# [16] = target: LAP2, Q96RT1
# [17] = target: GORASP1, Q9BQQ3
# [18] = target: T6, RHPN1, Q8TCX5
# T6 sequence (Q8TCX5 508-602, limits assumed, looked up): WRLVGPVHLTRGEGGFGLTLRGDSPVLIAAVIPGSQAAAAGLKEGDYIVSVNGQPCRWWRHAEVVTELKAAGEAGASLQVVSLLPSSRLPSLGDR
# [19] = target: SCRIB_2, Q14160
# [20] = target: T7, DLG3_1, Q92796
# T7 sequence (Q92796 125-227, limits assumed, looked up): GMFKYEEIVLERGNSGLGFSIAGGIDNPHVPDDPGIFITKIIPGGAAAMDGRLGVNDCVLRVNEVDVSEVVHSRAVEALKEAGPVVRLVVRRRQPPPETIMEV
# [21] = target: T8, NHERF3_4, Q5T2W1
# T8 sequence (Q5T2W1 373-468, limits assumed, looked up): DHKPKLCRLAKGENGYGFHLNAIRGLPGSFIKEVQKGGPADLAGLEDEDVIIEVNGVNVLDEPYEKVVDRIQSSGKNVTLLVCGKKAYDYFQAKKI
# [22] = target: Inadl_8, Q8NI35
# [23] = target: FRMPD2_2, Q68DX3
# [24] = target: T9, LIN7A, O14910
# T9 sequence (O14910 103-200, limits assumed, looked up): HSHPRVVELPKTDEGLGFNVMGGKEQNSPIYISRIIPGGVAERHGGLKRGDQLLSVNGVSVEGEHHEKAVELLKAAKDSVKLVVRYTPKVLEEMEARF
# [25] = target: T10, DLG3_2, Q92796
# T10 sequence (Q92796 221-321, limits assumed, looked up): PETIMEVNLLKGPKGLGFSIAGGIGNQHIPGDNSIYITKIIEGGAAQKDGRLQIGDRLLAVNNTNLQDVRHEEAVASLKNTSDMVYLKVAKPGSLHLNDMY
# [26] = target: MAGI3_2, Q5TCQ9
# [27] = target: T11, NHERF3_3, Q5T2W1
# T11 sequence (Q5T2W1 238-333, limits assumed, looked up): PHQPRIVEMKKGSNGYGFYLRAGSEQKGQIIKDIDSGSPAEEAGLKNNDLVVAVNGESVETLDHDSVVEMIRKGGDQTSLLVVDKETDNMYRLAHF
# Sequence of LAP2, Q96RT1 (Q96RT1 other isoform, or with tags, fused parts or gaps): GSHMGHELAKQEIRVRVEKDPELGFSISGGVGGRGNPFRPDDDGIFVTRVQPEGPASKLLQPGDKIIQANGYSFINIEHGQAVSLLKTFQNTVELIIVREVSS
# Sequence of MAGI3_2, Q5TCQ9 (Q5TCQ9 398-503): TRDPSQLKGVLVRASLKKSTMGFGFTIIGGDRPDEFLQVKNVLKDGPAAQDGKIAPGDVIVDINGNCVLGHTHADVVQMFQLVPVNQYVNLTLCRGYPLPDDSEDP
# Sequence of TJP1_2, Q07157 (Q07157 181-274): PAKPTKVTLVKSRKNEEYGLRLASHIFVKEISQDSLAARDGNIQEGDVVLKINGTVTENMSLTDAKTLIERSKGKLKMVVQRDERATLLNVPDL
# Sequence of FRMPD2_2, Q68DX3 (Q68DX3 944-1038): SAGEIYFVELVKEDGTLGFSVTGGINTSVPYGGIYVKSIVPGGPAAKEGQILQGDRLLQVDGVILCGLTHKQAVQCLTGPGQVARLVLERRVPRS
# Sequence of SCRIB_2, Q14160 (Q14160 857-960): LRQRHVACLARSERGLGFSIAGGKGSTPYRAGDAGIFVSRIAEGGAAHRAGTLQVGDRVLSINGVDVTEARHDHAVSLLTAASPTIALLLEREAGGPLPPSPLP
# Sequence of CASK, O14936 (O14936 487-570): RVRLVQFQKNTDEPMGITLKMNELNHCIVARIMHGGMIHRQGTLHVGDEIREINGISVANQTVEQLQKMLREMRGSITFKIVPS
# Sequence of FRMPD2_1, Q68DX3 (Q68DX3 770-861): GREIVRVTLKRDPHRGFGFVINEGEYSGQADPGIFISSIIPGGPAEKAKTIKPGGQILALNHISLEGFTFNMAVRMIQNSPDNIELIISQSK
# Sequence of GRID2IP_1, A4D2P6 (A4D2P6 1-87): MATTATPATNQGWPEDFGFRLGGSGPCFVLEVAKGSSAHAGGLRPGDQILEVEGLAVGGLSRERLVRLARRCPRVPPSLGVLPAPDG
# Sequence of GORASP1, Q9BQQ3 (Q9BQQ3 1-208): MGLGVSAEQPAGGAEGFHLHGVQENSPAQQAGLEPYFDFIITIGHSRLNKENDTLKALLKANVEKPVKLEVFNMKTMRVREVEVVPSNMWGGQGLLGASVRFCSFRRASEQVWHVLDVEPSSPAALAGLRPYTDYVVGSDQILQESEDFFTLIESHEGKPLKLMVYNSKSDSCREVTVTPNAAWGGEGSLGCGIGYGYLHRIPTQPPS
# Sequence of Inadl_5, Q8NI35 (Q8NI35 673-780): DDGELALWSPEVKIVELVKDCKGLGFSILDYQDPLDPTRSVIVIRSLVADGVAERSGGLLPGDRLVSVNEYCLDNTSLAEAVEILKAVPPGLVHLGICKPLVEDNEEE
# Sequence of FRMPD2_3, Q68DX3 (Q68DX3 1073-1166): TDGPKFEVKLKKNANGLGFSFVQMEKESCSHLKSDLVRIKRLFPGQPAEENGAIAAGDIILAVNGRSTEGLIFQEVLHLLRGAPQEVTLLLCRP
# Sequence of MAGI1_1, Q96QZ7 (Q96QZ7 1-106): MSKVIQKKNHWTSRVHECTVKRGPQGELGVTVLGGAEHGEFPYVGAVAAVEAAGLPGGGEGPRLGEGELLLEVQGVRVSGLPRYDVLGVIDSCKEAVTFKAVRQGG
# Sequence of Inadl_8, Q8NI35 (Q8NI35 1425-1530): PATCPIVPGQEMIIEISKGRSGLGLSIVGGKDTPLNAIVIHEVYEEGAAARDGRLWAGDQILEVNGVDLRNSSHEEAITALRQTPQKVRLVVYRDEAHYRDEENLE
# Sequence of DLG4_1, P78352 (P78352 62-152): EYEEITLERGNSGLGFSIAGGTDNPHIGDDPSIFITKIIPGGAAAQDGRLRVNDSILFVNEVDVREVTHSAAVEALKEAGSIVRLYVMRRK
# Sequence of MAGI2_6, Q86UL8 (Q86UL8 1141-1229): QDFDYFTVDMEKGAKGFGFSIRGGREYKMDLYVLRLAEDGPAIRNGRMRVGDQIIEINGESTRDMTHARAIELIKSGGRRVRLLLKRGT
binder,measurement,setting,value
"QKAPTKEFYA [SDC2, P34741]",pKd,[1],below the threshold
same,pKd,[2],below the threshold
same,pKd,[3],below the threshold
same,pKd,[4],below the threshold
same,pKd,[5],3.48
same,pKd,[6],4.1
same,pKd,[7],below the threshold
same,pKd,[8],below the threshold
same,pKd,[9],3.93
same,pKd,[10],below the threshold
same,pKd,[11],below the threshold
same,pKd,[12],3.67
same,pKd,[13],below the threshold
same,pKd,[14],below the threshold
same,pKd,[15],4.31
same,pKd,[16],below the threshold
same,pKd,[17],3.51
same,pKd,[18],below the threshold
same,pKd,[19],below the threshold
same,pKd,[20],below the threshold
same,pKd,[21],3.82
same,pKd,[22],below the threshold
same,pKd,[23],3.61
same,pKd,[24],below the threshold
same,pKd,[25],4.18
same,pKd,[26],below the threshold
same,pKd,[27],below the threshold
"TGLWKHETTV [ADGRA3, Q8IWK6]",pKd,[1],below the threshold
same,pKd,[2],below the threshold
same,pKd,[3],below the threshold
same,pKd,[4],4.2
same,pKd,[5],below the threshold
same,pKd,[6],below the threshold
same,pKd,[7],below the threshold
same,pKd,[8],below the threshold
same,pKd,[9],3.98
same,pKd,[10],5.21
same,pKd,[11],below the threshold
same,pKd,[12],below the threshold
same,pKd,[13],4.84
same,pKd,[14],3.86
same,pKd,[15],below the threshold
same,pKd,[16],4.32
same,pKd,[17],below the threshold
same,pKd,[18],4.44
same,pKd,[19],4.56
same,pKd,[20],4.69
same,pKd,[21],below the threshold
same,pKd,[22],below the threshold
same,pKd,[23],3.76
same,pKd,[24],4.19
same,pKd,[25],5.25
same,pKd,[26],5.48
same,pKd,[27],below the threshold
"EKCGKEFSEF [PRKACA, P17612]",pKd,[1],below the threshold
same,pKd,[2],below the threshold
same,pKd,[3],below the threshold
same,pKd,[4],3.68
same,pKd,[5],below the threshold
same,pKd,[6],below the threshold
same,pKd,[7],below the threshold
same,pKd,[8],below the threshold
same,pKd,[9],below the threshold
same,pKd,[10],below the threshold
same,pKd,[11],below the threshold
same,pKd,[12],below the threshold
same,pKd,[13],below the threshold
same,pKd,[14],below the threshold
same,pKd,[15],below the threshold
same,pKd,[16],below the threshold
same,pKd,[17],below the threshold
same,pKd,[18],below the threshold
same,pKd,[19],below the threshold
same,pKd,[20],below the threshold
same,pKd,[21],below the threshold
same,pKd,[22],below the threshold
same,pKd,[23],below the threshold
same,pKd,[24],below the threshold
same,pKd,[25],4.11
same,pKd,[26],below the threshold
same,pKd,[27],below the threshold
"PYPTADHMLA [JUP, P14923]",pKd,[1],below the threshold
same,pKd,[2],below the threshold
same,pKd,[3],below the threshold
same,pKd,[4],below the threshold
same,pKd,[5],below the threshold
same,pKd,[6],below the threshold
same,pKd,[7],below the threshold
same,pKd,[8],below the threshold
same,pKd,[9],below the threshold
same,pKd,[10],below the threshold
same,pKd,[11],below the threshold
same,pKd,[12],below the threshold
same,pKd,[13],below the threshold
same,pKd,[14],below the threshold
same,pKd,[15],below the threshold
same,pKd,[16],below the threshold
same,pKd,[17],below the threshold
same,pKd,[18],below the threshold
same,pKd,[19],below the threshold
same,pKd,[20],below the threshold
same,pKd,[21],below the threshold
same,pKd,[22],below the threshold
same,pKd,[23],below the threshold
same,pKd,[24],below the threshold
same,pKd,[25],4.05
same,pKd,[26],3.73
same,pKd,[27],below the threshold
